# Source: EP2204447B1
# Molecular target: streptavidin (UniProt P22629)
# Experiment: capture of cells on streptavidin coated magnetic beads, before selection
# Sequence of UniProt P22629 (P22629 37-163 limits assumed): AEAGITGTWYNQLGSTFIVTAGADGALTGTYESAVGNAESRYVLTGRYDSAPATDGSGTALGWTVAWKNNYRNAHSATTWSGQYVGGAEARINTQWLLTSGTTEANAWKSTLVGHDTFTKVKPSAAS
substance,measurement,value
Ramos IgM (immunoglobulin of the unselected / wild-type Ramos Burkitt lymphoma cell line) (antibody),proportion of cells which bind to the beads,0.02%
